These results are taken from patent US20050118674A1, “Engineering of Controlled Deamidation Rates in Peptides, Proteins, and Similar Structures” (priority 2003, published 2005).

Where no end group is shown, it is not given here.

The first data set in a line: First-order nonenzymatic deamidation of pentapeptides in Tris buffer. It is filed as physicochemical. The following applies: pH 7.4, 37.0° C., 0.15 M Tris HCl; Asn pentapeptides. The procedure, abridged: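 Pentapeptides containing Asn or Gln in varied flanking sequences incubated at 37° C., pH 7.4, 0.15 M Tris buffer; first-order deamidation rates measured. Some Asn values estimated from remaining data; many Gln values derived from surface fitting rather than measured.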
On to “GlyProAsnValGly (GPNVG; printed: GlyProAsnValGly)”, for which the “First-Order Deamidation Halftimes of GlyXxxAsnYyyGly” value came to 364 days.
“GlyMetAsnProGly (GMNPG; printed: GlyMetAsnProGly)”: the “First-Order Deamidation Halftimes of GlyXxxAsnYyyGly” value is recorded as 9300 days.
The same measure, in the same setting: the result for “GlyHisAsnIleGly (GHNIG; printed: GlyHisAsnIleGly)” reads 327 days.
On the same count and under the same terms, the value for “GlyGlyAsnValGly (GGNVG; printed: GlyGlyAsnValGly)” was 224 days; that for “GlyAmCysAsnProGly (CNPG; not fully specified (N-terminus); printed as GlyAmCysAsnProGly)” was 3900 days; that for “GlyLysAsnGluGly (GKNEG; printed: GlyLysAsnGluGly)” was 72.5 days.
Still for that read-out and setting: the result for “GlyGlyAsnThrGly (GGNTG; printed: GlyGlyAsnThrGly)” reads 39.8 days.
Regarding “GlyLeuAsnTyrGly (GLNYG; printed: GlyLeuAsnTyrGly)”, the “First-Order Deamidation Halftimes of GlyXxxAsnYyyGly” value is 75.7 days.
Regarding “GlyLysAsnHisGly (GKNHG; printed: GlyLysAsnHisGly)”, the “First-Order Deamidation Halftimes of GlyXxxAsnYyyGly” value worked out at 10.5 days.
On the same count and under the same terms, the value for “GlyValAsnArgGly (GVNRG; printed: GlyValAsnArgGly)” was 67.4 days.
On to “GlyMetAsnTrpGly (GMNWG; printed: GlyMetAsnTrpGly)”, for which the “First-Order Deamidation Halftimes of GlyXxxAsnYyyGly” value is 92.7 days.
The same measure, in the same setting: the value for GlyAspAsnAmCysGly was 45.8 days; that for “GlyThrAsnSerGly (GTNSG; printed: GlyThrAsnSerGly)” was 17.1 days.
Still for that read-out and setting: the result for GlyPheAsnAmCysGly reads 29.8 days.
For the substance “GlyCysAsnAspGly (GCNDG; printed: GlyCysAsnAspGly)”, the “First-Order Deamidation Halftimes of GlyXxxAsnYyyGly” value amounted to 30.6 days.
In the case of “GlyTyrAsnGluGly (GYNEG; printed: GlyTyrAsnGluGly)”, the “First-Order Deamidation Halftimes of GlyXxxAsnYyyGly” value is given as 41.0 days.
On the same count and under the same terms, the result for “GlyTyrAsnThrGly (GYNTG; printed: GlyTyrAsnThrGly)” reads 38.1 days; that for “GlyAspAsnLysGly (GDNKG; printed: GlyAspAsnLysGly)”, 75.9 days.
The same measure, in the same setting: the result for “GlyTyrAsnMetGly (GYNMG; printed: GlyTyrAsnMetGly)” reads 64.3 days.
Still for that read-out and setting: the value for “GlyCysAsnTrpGly (GCNWG; printed: GlyCysAsnTrpGly)” was 111 days; that for “GlyValAsnMetGly (GVNMG; printed: GlyValAsnMetGly)” was 65.7 days; that for “GlyPheAsnAspGly (GFNDG; printed: GlyPheAsnAspGly)” was 27.4 days.
As to “GlyIleAsnValGly (GINVG; printed: GlyIleAsnValGly)”, the “First-Order Deamidation Halftimes of GlyXxxAsnYyyGly” value was determined as 295 days.
Take “GlyTrpAsnArgGly (GWNRG; printed: GlyTrpAsnArgGly)”: the “First-Order Deamidation Halftimes of GlyXxxAsnYyyGly” value is 73.9 days.
With “GlyHisAsnCysGly (GHNCG; printed: GlyHisAsnCysGly)”, the “First-Order Deamidation Halftimes of GlyXxxAsnYyyGly” value amounted to 43.9 days.
Still for that read-out and setting: the value for “GlyTrpAsnGluGly (GWNEG; printed: GlyTrpAsnGluGly)” was 75.7 days; that for “GlyAspAsnMetGly (GDNMG; printed: GlyAspAsnMetGly)” was 57.3 days; that for “GlyTyrAsnLysGly (GYNKG; printed: GlyTyrAsnLysGly)” was 55.1 days.
The same measure, in the same setting: the value for “GlyAspAsnTyrGly (GDNYG; printed: GlyAspAsnTyrGly)” was 70.4 days; that for GlyHisAsnAmCysGly was 33.8 days; that for “GlyProAsnMetGly (GPNMG; printed: GlyProAsnMetGly)” was 78.4 days.
For “GlyTrpAsnIleGly (GWNIG; printed: GlyTrpAsnIleGly)”, the “First-Order Deamidation Halftimes of GlyXxxAsnYyyGly” value is reported as 286 days.
For “GlyHisAsnProGly (GHNPG; printed: GlyHisAsnProGly)”, the “First-Order Deamidation Halftimes of GlyXxxAsnYyyGly” value turned out to be 8440 days.
Same read-out and setting: the result for “GlyGlyAsnTrpGly (GGNWG; printed: GlyGlyAsnTrpGly)” reads 77.1 days.
Still for that read-out and setting: the result for “GlyProAsnTrpGly (GPNWG; printed: GlyProAsnTrpGly)” reads 122 days; that for “GlyAmCysAsnTrpGly (CNWG; not fully specified (N-terminus); printed as GlyAmCysAsnTrpGly)”, 81.3 days; that for “GlyGluAsnMetGly (GENMG; printed: GlyGluAsnMetGly)”, 59.6 days.

The data set is the same for the next values; noted with them: pH 7.4, 37.0 ° C., 0.15 M Tris HCl; Gln pentapeptides; 52 values measured, rest derived from surface fitting.
Turning to “GlyCysGlnHisGly (GCQHG; printed: GlyCysGlnHisGly)”, the “First-Order Deamidation Halftimes of GlyXxxGlnYyyGly” value was found to be 4200 days.
“GlyProGlnAlaGly (GPQAG; printed: GlyProGlnAlaGly)”: the “First-Order Deamidation Halftimes of GlyXxxGlnYyyGly” value is listed as 4700 days.
The same measure, in the same setting: the result for “GlyIleGlnGlyGly (GIQGG; printed: GlyIleGlnGlyGly)” reads 620 days; that for “GlyMetGlnMetGly (GMQMG; printed: GlyMetGlnMetGly)”, 3500 days; that for “GlyPheGlnHisGly (GFQHG; printed: GlyPheGlnHisGly)”, 6200 days.
Same read-out and setting: the result for “GlyValGlnCysGly (GVQCG; printed: GlyValGlnCysGly)” reads 1300 days; that for “GlyAspGlnPheGly (GDQFG; printed: GlyAspGlnPheGly)”, 8500 days.
Take “GlyGluGlnArgGly (GEQRG; printed: GlyGluGlnArgGly)”: the “First-Order Deamidation Halftimes of GlyXxxGlnYyyGly” value turned out to be 5200 days.
For the substance “GlyPheGlnGlyGly (GFQGG; printed: GlyPheGlnGlyGly)”, the “First-Order Deamidation Halftimes of GlyXxxGlnYyyGly” value is 660 days.
Same read-out and setting: the value for “GlyTrpGlnCysGly (GWQCG; printed: GlyTrpGlnCysGly)” was 2300 days.
For the substance “GlyArgGlnThrGly (GRQTG; printed: GlyArgGlnThrGly)”, the “First-Order Deamidation Halftimes of GlyXxxGlnYyyGly” value amounted to 4200 days.
Still for that read-out and setting: the value for “GlyTrpGlnGluGly (GWQEG; printed: GlyTrpGlnGluGly)” was 8500 days; that for “GlyArgGlnAlaGly (GRQAG; printed: GlyArgGlnAlaGly)” was 4400 days; that for “GlyValGlnHisGly (GVQHG; printed: GlyValGlnHisGly)” was 5000 days.
Same read-out and setting: the value for “GlyHisGlnMetGly (GHQMG; printed: GlyHisGlnMetGly)” was 5200 days; that for “GlyProGlnLeuGly (GPQLG; printed: GlyProGlnLeuGly)” was 5800 days.
On the same count and under the same terms, the value for “GlyGlyGlnTrpGly (GGQWG; printed: GlyGlyGlnTrpGly)” was 15000 days; that for “GlyGluGlnTrpGly (GEQWG; printed: GlyGluGlnTrpGly)” was 17000 days; that for “GlyIleGlnHisGly (GIQHG; printed: GlyIleGlnHisGly)” was 6100 days.
In the case of “GlyAlaGlnProGly (GAQPG; printed: GlyAlaGlnProGly)”, the “First-Order Deamidation Halftimes of GlyXxxGlnYyyGly” value is reported as 9300 days.
Still for that read-out and setting: the result for “GlyGlyGlnAspGly (GGQDG; printed: GlyGlyGlnAspGly)” reads 7600 days.
Still for that read-out and setting: the result for “GlyAspGlnCysGly (GDQCG; printed: GlyAspGlnCysGly)” reads 2100 days.
As for “GlyValGlnMetGly (GVQMG; printed: GlyValGlnMetGly)”, the “First-Order Deamidation Halftimes of GlyXxxGlnYyyGly” value was 4200 days.
On the same count and under the same terms, the result for “GlyTrpGlnLysGly (GWQKG; printed: GlyTrpGlnLysGly)” reads 7600 days; that for “GlySerGlnProGly (GSQPG; printed: GlySerGlnProGly)”, 10000 days; that for “GlyValGlnProGly (GVQPG; printed: GlyValGlnProGly)”, 8500 days.
Still for that read-out and setting: the value for “GlyGluGlnThrGly (GEQTG; printed: GlyGluGlnThrGly)” was 5400 days; that for “GlyLeuGlnMetGly (GLQMG; printed: GlyLeuGlnMetGly)” was 4800 days; that for “GlyGluGlnAspGly (GEQDG; printed: GlyGluGlnAspGly)” was 8300 days.
As to “GlyLeuGlnProGly (GLQPG; printed: GlyLeuGlnProGly)”, the “First-Order Deamidation Halftimes of GlyXxxGlnYyyGly” value is recorded as 10000 days.
Still for that read-out and setting: the result for “GlyLysGlnGluGly (GKQEG; printed: GlyLysGlnGluGly)” reads 5400 days; that for “GlyGluGlnLysGly (GEQKG; printed: GlyGluGlnLysGly)”, 4600 days; that for “GlyValGlnLeuGly (GVQLG; printed: GlyValGlnLeuGly)”, 5500 days.
As for “GlyThrGlnThrGly (GTQTG; printed: GlyThrGlnThrGly)”, the “First-Order Deamidation Halftimes of GlyXxxGlnYyyGly” value was 4000 days.
Turning to “GlyAspGlnProGly (GDQPG; printed: GlyAspGlnProGly)”, the “First-Order Deamidation Halftimes of GlyXxxGlnYyyGly” value turned out to be 11000 days.
